# Results published in the supplement of paper PMC9112550, “Optimization of the antimicrobial peptide Bac7 by deep mutational scanning” (BMC Biology, 2022).
# System: Escherichia coli TOP10
# Assay: shrunken log2 fold change of peptide-encoding DNA abundance (4.5 h post-induction vs induction); higher = less antimicrobial activity (less host growth inhibition)
# Conditions: time post-induction: 4.5 h; library: site-saturation at positions 5, 18, 19, 20
# 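Further: peptides expressed intracellularly from a pBAD plasmid library in pooled LB shake-flask culture, induced with 0.3% L-arabinose, DNA abundance read by NGS, three biological replicates, DESeq2 with apeglm shrinkage.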
row,Sequence,shrunken log2 fold change
1,RRIRMRPPRLPRPRPRPYAEPRP,0.0571
2,RRIRMRPPRLPRPRPRPYAQPRP,-0.291
3,RRIRMRPPRLPRPRPRPYCQPRP,-0.0783
4,RRIRMRPPRLPRPRPRPYCRPRP,-0.0603
5,RRIRMRPPRLPRPRPRPYELPRP,0.0224
6,RRIRMRPPRLPRPRPRPYFYPRP,-0.53
7,RRIRMRPPRLPRPRPRPYHNPRP,-0.47
8,RRIRMRPPRLPRPRPRPYILPRP,-1.08
9,RRIRMRPPRLPRPRPRPYLEPRP,-0.0515
10,RRIRMRPPRLPRPRPRPYLIPRP,-0.463
11,RRIRMRPPRLPRPRPRPYNMPRP,-0.348
12,RRIRMRPPRLPRPRPRPYPRPRP,0.112
13,RRIRMRPPRLPRPRPRPYRLPRP,-0.0977
14,RRIRMRPPRLPRPRPRPYSKPRP,-0.145
15,RRIRMRPPRLPRPRPRPYSQPRP,-0.0394
16,RRIRMRPPRLPRPRPRPYTEPRP,-0.245
17,RRIRMRPPRLPRPRPRPYVRPRP,-0.313
18,RRIRMRPPRLPRPRPRPYYIPRP,-0.227
19,RRIRNRPPRLPRPRPRPADAPRP,0.261
20,RRIRNRPPRLPRPRPRPAEDPRP,0.0275
21,RRIRNRPPRLPRPRPRPAEEPRP,0.119
22,RRIRNRPPRLPRPRPRPAGGPRP,0.16

row,Sequence,shrunken log2 fold change
1,RRIRNRPPRLPRPRPRPAGIPRP,-0.0145
2,RRIRNRPPRLPRPRPRPAHFPRP,0.292
3,RRIRNRPPRLPRPRPRPAHIPRP,0.00258
4,RRIRNRPPRLPRPRPRPAIWPRP,0.13
5,RRIRNRPPRLPRPRPRPAKQPRP,-0.0201
6,RRIRNRPPRLPRPRPRPAMSPRP,-0.137
7,RRIRNRPPRLPRPRPRPAMYPRP,-0.112
8,RRIRNRPPRLPRPRPRPANHPRP,-0.208
9,RRIRNRPPRLPRPRPRPANKPRP,0.0716
10,RRIRNRPPRLPRPRPRPAPCPRP,0.0656
11,RRIRNRPPRLPRPRPRPARHPRP,0.0771
12,RRIRNRPPRLPRPRPRPATNPRP,-0.0513
13,RRIRNRPPRLPRPRPRPAVIPRP,-0.277
14,RRIRNRPPRLPRPRPRPAVKPRP,-0.229
15,RRIRNRPPRLPRPRPRPAWGPRP,0.288
16,RRIRNRPPRLPRPRPRPAYKPRP,-0.128
17,RRIRNRPPRLPRPRPRPCAPPRP,-0.436
18,RRIRNRPPRLPRPRPRPCDSPRP,0.11
19,RRIRNRPPRLPRPRPRPCDWPRP,-0.0698
20,RRIRNRPPRLPRPRPRPCELPRP,-0.0966
21,RRIRNRPPRLPRPRPRPCFEPRP,0.00026
22,RRIRNRPPRLPRPRPRPCFGPRP,0.0347

row,Sequence,shrunken log2 fold change
1,RRIRNRPPRLPRPRPRPCFQPRP,0.012
2,RRIRNRPPRLPRPRPRPCGCPRP,0.0239
3,RRIRNRPPRLPRPRPRPCGHPRP,0.0743
4,RRIRNRPPRLPRPRPRPCICPRP,-0.33
5,RRIRNRPPRLPRPRPRPCMEPRP,-0.206
6,RRIRNRPPRLPRPRPRPCNFPRP,-0.0737
7,RRIRNRPPRLPRPRPRPCNPPRP,-0.378
8,RRIRNRPPRLPRPRPRPCPPPRP,-0.328
9,RRIRNRPPRLPRPRPRPCQPPRP,-0.0231
10,RRIRNRPPRLPRPRPRPCQYPRP,-0.0135
11,RRIRNRPPRLPRPRPRPCTHPRP,-0.147
12,RRIRNRPPRLPRPRPRPCTMPRP,-0.199
13,RRIRNRPPRLPRPRPRPCVIPRP,-0.318
14,RRIRNRPPRLPRPRPRPCVLPRP,-0.202
15,RRIRNRPPRLPRPRPRPCWEPRP,-0.0598
16,RRIRNRPPRLPRPRPRPCWLPRP,-0.7
17,RRIRNRPPRLPRPRPRPCYNPRP,-0.124
18,RRIRNRPPRLPRPRPRPCYQPRP,-0.32
19,RRIRNRPPRLPRPRPRPDEYPRP,0.00318
20,RRIRNRPPRLPRPRPRPDFQPRP,-0.156
21,RRIRNRPPRLPRPRPRPDGTPRP,-0.128
22,RRIRNRPPRLPRPRPRPDHFPRP,-0.0062

row,Sequence,shrunken log2 fold change
1,RRIRNRPPRLPRPRPRPDHNPRP,-0.245
2,RRIRNRPPRLPRPRPRPDIRPRP,-0.01
3,RRIRNRPPRLPRPRPRPDLRPRP,-0.105
4,RRIRNRPPRLPRPRPRPDLYPRP,-0.0459
5,RRIRNRPPRLPRPRPRPDMAPRP,-0.0639
6,RRIRNRPPRLPRPRPRPDMMPRP,-0.233
7,RRIRNRPPRLPRPRPRPDNDPRP,-0.579
8,RRIRNRPPRLPRPRPRPDNYPRP,-0.341
9,RRIRNRPPRLPRPRPRPDPLPRP,-0.0328
10,RRIRNRPPRLPRPRPRPDPRPRP,0.562
11,RRIRNRPPRLPRPRPRPDQNPRP,-0.017
12,RRIRNRPPRLPRPRPRPDRLPRP,-0.038
13,RRIRNRPPRLPRPRPRPDRPPRP,-0.151
14,RRIRNRPPRLPRPRPRPDSDPRP,-0.00992
15,RRIRNRPPRLPRPRPRPDTFPRP,0.0183
16,RRIRNRPPRLPRPRPRPDVDPRP,0.0446
17,RRIRNRPPRLPRPRPRPDVTPRP,0.216
18,RRIRNRPPRLPRPRPRPDWFPRP,-0.0803
19,RRIRNRPPRLPRPRPRPDWNPRP,-0.212
20,RRIRNRPPRLPRPRPRPDWYPRP,-0.0314
21,RRIRNRPPRLPRPRPRPDYAPRP,-0.0367
22,RRIRNRPPRLPRPRPRPDYWPRP,-0.21

row,Sequence,shrunken log2 fold change
1,RRIRNRPPRLPRPRPRPEARPRP,-0.0678
2,RRIRNRPPRLPRPRPRPECSPRP,0.079
3,RRIRNRPPRLPRPRPRPECWPRP,0.616
4,RRIRNRPPRLPRPRPRPEGDPRP,-0.043
5,RRIRNRPPRLPRPRPRPEHVPRP,-0.0119
6,RRIRNRPPRLPRPRPRPEICPRP,0.0654
7,RRIRNRPPRLPRPRPRPEISPRP,-0.126
8,RRIRNRPPRLPRPRPRPEIVPRP,0.106
9,RRIRNRPPRLPRPRPRPELKPRP,0.00533
10,RRIRNRPPRLPRPRPRPEMDPRP,0.294
11,RRIRNRPPRLPRPRPRPENNPRP,-0.106
12,RRIRNRPPRLPRPRPRPENQPRP,0.216
13,RRIRNRPPRLPRPRPRPENVPRP,-0.123
14,RRIRNRPPRLPRPRPRPEPIPRP,0.0458
15,RRIRNRPPRLPRPRPRPEQGPRP,0.111
16,RRIRNRPPRLPRPRPRPESRPRP,0.114
17,RRIRNRPPRLPRPRPRPESWPRP,0.362
18,RRIRNRPPRLPRPRPRPEVTPRP,-0.0105
19,RRIRNRPPRLPRPRPRPEWWPRP,0.315
20,RRIRNRPPRLPRPRPRPFAIPRP,-0.0909
21,RRIRNRPPRLPRPRPRPFDLPRP,-0.176
